Data as given in PMC11472164.

Experiments:
Experiment in all cases: EMSA
[1] = target: FANCMc-deltaHel2i (UniProt Q8IYD8;Q8N2Z9;A8MT69;Q9BTP7 1-297+444-2048;1-138;1-81;1-215, internal_change)
[2] = target: T1, trFANCM-deltaHel2i (UniProt Q8IYD8 82-647, del298-443)
T1 sequence: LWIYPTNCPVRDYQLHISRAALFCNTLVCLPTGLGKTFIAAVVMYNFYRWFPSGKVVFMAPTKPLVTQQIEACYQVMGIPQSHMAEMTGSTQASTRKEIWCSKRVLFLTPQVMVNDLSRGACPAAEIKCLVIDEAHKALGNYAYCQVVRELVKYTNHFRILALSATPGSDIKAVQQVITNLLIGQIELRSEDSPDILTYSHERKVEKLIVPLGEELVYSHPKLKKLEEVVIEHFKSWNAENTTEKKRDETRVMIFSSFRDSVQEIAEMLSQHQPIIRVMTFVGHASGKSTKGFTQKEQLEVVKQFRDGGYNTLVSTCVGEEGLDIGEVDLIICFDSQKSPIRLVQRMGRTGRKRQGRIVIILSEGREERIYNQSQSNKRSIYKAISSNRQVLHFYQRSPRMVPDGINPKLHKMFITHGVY

[3] = target: T2, trFANCM (translocase domain) (UniProt Q8IYD8 82-647)
T2 sequence: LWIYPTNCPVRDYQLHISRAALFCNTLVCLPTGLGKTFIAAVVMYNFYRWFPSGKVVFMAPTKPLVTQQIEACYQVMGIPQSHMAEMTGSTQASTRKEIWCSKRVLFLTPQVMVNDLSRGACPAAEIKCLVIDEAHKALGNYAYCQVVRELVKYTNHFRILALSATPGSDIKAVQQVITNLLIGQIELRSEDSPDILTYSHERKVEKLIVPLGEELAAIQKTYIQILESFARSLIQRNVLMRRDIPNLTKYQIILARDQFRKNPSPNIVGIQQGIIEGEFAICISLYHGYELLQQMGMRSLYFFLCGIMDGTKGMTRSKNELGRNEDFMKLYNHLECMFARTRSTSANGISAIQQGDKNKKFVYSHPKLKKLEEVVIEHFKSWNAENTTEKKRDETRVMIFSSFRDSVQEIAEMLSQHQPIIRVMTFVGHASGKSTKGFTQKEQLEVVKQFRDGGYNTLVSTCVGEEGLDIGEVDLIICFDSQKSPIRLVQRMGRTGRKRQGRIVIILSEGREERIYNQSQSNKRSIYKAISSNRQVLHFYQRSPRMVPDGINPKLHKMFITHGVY

[4] = target: FANCMc (full-length FANCM complex) (UniProt Q8IYD8;Q8N2Z9;A8MT69;Q9BTP7 1-2048;1-138;1-81;1-215)

B1: 30 bp static (non-migratable) Holliday junction, X0s1-4, IRDye700 (structured_DNA)
DNA 1: TACCAGTGCCTTGCTAGGACATCTTTGCCCAC
DNA 2: GTGGGCAAAGATGTCCATCTGTTGTAATCGTC
DNA 3: GACGATTACAACAGATCATGGAGCTGTCTAGA
DNA 4: TCTAGACAGCTCCATGTAGCAAGGCACTGGTA
binding result [1]: binds | binding signal [2]: > 60 fold reduction vs trFANCM | binding result [3]: binds | binding result [4]: binds
